molecular target: T1, PUF4 RNA-binding domain (Saccharomyces cerevisiae, UniProt P25339 537-888); experiment: Mg; RNA-MaP; 20 mM Na-HEPES pH 7.4, 30 mM KOAc, 0.75 mM MgCl2, 0.1% Tween-20, 5% glycerol, 0.1 mg/mL BSA, 2 mM DTT; 25 C; 0.0125-409.6 nM protein; conditions: tags: N-His6-TEV cleaved; C-SNAP kept, Cy3B-labelled; label: tethered on chip by stalled RNA polymerase
T1 sequence: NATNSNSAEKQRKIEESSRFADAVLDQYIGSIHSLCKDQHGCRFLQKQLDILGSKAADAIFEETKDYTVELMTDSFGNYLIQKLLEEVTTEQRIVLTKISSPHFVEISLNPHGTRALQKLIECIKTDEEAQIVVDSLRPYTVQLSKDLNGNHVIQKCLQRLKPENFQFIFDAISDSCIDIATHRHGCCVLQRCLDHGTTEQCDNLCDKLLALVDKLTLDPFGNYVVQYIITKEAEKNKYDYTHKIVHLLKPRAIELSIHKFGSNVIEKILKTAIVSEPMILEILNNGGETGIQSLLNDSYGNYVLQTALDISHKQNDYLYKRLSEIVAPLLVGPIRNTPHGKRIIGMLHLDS

Binder | Kd [nM]
UCUCUUAUACACUAUUAAAUCUCUU (ssRNA) [Id_ii_S1_P4E.4_K4.3_C4.2_[C-2A]_H4.3_A4.1_F4.1_T4.2_[G10A]_[T11A]] | 24.2
UCUCUUUGUACUUUAUCUCUU (ssRNA) [Ib_S1_P4E.1_K4.1_C4.1_H4.1_A4.1_[T5C]_[A6T]_F4.1_T4.1] | 2.73
UCUCUUAUACACUAUUAGCUCUCUU (ssRNA) [Id_ii_S1_P4E.4_K4.3_C4.2_[C-2A]_H4.3_A4.1_F4.1_T4.2_[T11C]] | 49.5
UCUCUUGUUGUAUUAUUAAUUCUCUU (ssRNA) [Id_ii_S1_P5E.2_K5.1_C5.2_[C-2G]_H5.1_A5.1_F5.1_T5.2_[T11A]_[A12T]] | 9.79
UCUCUUCCACACUAUUACUUCUCUU (ssRNA) [Id_ii_S1_P4E.4_K4.3_C4.2_[T-1C]_H4.3_A4.1_F4.1_T4.2_[G10C]] | > 2300
UCUCUUAAACACUAUUACCUCUCUU (ssRNA) [Id_ii_S1_P4E.4_K4.3_C4.2_[C-2A]_[T-1A]_H4.3_A4.1_F4.1_T4.2_[G10C]_[T11C]] | > 2300
UCUCUUGUUGUAUUAUUAAAUCUCUU (ssRNA) [Id_ii_S1_P5E.2_K5.1_C5.2_[C-2G]_H5.1_A5.1_F5.1_T5.2_[T11A]] | 11.7
UCUCUUAAACACUAUUAUCUCUCUU (ssRNA) [Id_ii_S1_P4E.4_K4.3_C4.2_[C-2A]_[T-1A]_H4.3_A4.1_F4.1_T4.2_[G10T]_[T11C]] | > 2300
UCUCUUAAACACUAUUAUUUCUCUU (ssRNA) [Id_ii_S1_P4E.4_K4.3_C4.2_[C-2A]_[T-1A]_H4.3_A4.1_F4.1_T4.2_[G10T]] | > 2300
UCUCUUGCUGUAUUAUUAAUUCUCUU (ssRNA) [Id_ii_S1_P5E.2_K5.1_C5.2_[C-2G]_[T-1C]_H5.1_A5.1_F5.1_T5.2_[T11A]_[A12T]] | 21.6
UCUCUUAAACACUAUUAUAUCUCUU (ssRNA) [Id_ii_S1_P4E.4_K4.3_C4.2_[C-2A]_[T-1A]_H4.3_A4.1_F4.1_T4.2_[G10T]_[T11A]] | > 2300
UCUCUUUGUGUAUUAUUAUUUCUCUU (ssRNA) [Id_ii_S1_P5E.2_K5.1_C5.2_[C-2T]_[T-1G]_H5.1_A5.1_F5.1_T5.2_[A12T]] | 3.95
UCUCUUCCACACUAUUACCUCUCUU (ssRNA) [Id_ii_S1_P4E.4_K4.3_C4.2_[T-1C]_H4.3_A4.1_F4.1_T4.2_[G10C]_[T11C]] | > 2300
UCUCUUAAACACUAUUAGCUCUCUU (ssRNA) [Id_ii_S1_P4E.4_K4.3_C4.2_[C-2A]_[T-1A]_H4.3_A4.1_F4.1_T4.2_[T11C]] | > 2300
UCUCUUCGACACUAUUACCUCUCUU (ssRNA) [Id_ii_S1_P4E.4_K4.3_C4.2_[T-1G]_H4.3_A4.1_F4.1_T4.2_[G10C]_[T11C]] | > 2300
UCUCUUCAACACUAUUACGUCUCUU (ssRNA) [Id_ii_S1_P4E.4_K4.3_C4.2_[T-1A]_H4.3_A4.1_F4.1_T4.2_[G10C]_[T11G]] | > 2300
UCUCUUCCACACUAUUAGCUCUCUU (ssRNA) [Id_ii_S1_P4E.4_K4.3_C4.2_[T-1C]_H4.3_A4.1_F4.1_T4.2_[T11C]] | > 2300
UCUCUUGUUGUAUUAUUAUCUCUCUU (ssRNA) [Id_ii_S1_P5E.2_K5.1_C5.2_[C-2G]_H5.1_A5.1_F5.1_T5.2_[A12C]] | 6.74
UCUCUUCGACACUAUUACAUCUCUU (ssRNA) [Id_ii_S1_P4E.4_K4.3_C4.2_[T-1G]_H4.3_A4.1_F4.1_T4.2_[G10C]_[T11A]] | > 2300
UCUCUUAUACACUAUUAUAUCUCUU (ssRNA) [Id_ii_S1_P4E.4_K4.3_C4.2_[C-2A]_H4.3_A4.1_F4.1_T4.2_[G10T]_[T11A]] | 31.1
UCUCUUAUACACUAUUACCUCUCUU (ssRNA) [Id_ii_S1_P4E.4_K4.3_C4.2_[C-2A]_H4.3_A4.1_F4.1_T4.2_[G10C]_[T11C]] | 26.4

Binder | Kd [nM]
UCUCUUUGUACCUUAUCUCUU (ssRNA) [Ib_S1_P4E.1_K4.1_C4.1_H4.1_A4.1_[T5C]_[A6C]_F4.1_T4.1] | 3.61
UCUCUUCAACACUAUUACUUCUCUU (ssRNA) [Id_ii_S1_P4E.4_K4.3_C4.2_[T-1A]_H4.3_A4.1_F4.1_T4.2_[G10C]] | > 2300
UCUCUUAUACACUAUUAGUUCUCUU (ssRNA) [Id_ii_S1_P4E.4_K4.3_C4.2_[C-2A]_H4.3_A4.1_F4.1_T4.2] | 42.8
UCUCUUUGUGUAUUAUUAACUCUCUU (ssRNA) [Id_ii_S1_P5E.2_K5.1_C5.2_[C-2T]_[T-1G]_H5.1_A5.1_F5.1_T5.2_[T11A]_[A12C]] | 3.86
UCUCUUAUACACUAUUAUCUCUCUU (ssRNA) [Id_ii_S1_P4E.4_K4.3_C4.2_[C-2A]_H4.3_A4.1_F4.1_T4.2_[G10T]_[T11C]] | 21.8
UCUCUUCGACACUAUUAUCUCUCUU (ssRNA) [Id_ii_S1_P4E.4_K4.3_C4.2_[T-1G]_H4.3_A4.1_F4.1_T4.2_[G10T]_[T11C]] | > 2300
UCUCUUUGUGUAUUAUUAUCUCUCUU (ssRNA) [Id_ii_S1_P5E.2_K5.1_C5.2_[C-2T]_[T-1G]_H5.1_A5.1_F5.1_T5.2_[A12C]] | 3.72
UCUCUUCCACACUAUUACGUCUCUU (ssRNA) [Id_ii_S1_P4E.4_K4.3_C4.2_[T-1C]_H4.3_A4.1_F4.1_T4.2_[G10C]_[T11G]] | > 2300
UCUCUUGCUGUAUUAUUAACUCUCUU (ssRNA) [Id_ii_S1_P5E.2_K5.1_C5.2_[C-2G]_[T-1C]_H5.1_A5.1_F5.1_T5.2_[T11A]_[A12C]] | 15.2
UCUCUUCAACACUAUUAGUUCUCUU (ssRNA) [Id_ii_S1_P4E.4_K4.3_C4.2_[T-1A]_H4.3_A4.1_F4.1_T4.2] | > 2300
UCUCUUAUACACUAUUAACUCUCUU (ssRNA) [Id_ii_S1_P4E.4_K4.3_C4.2_[C-2A]_H4.3_A4.1_F4.1_T4.2_[G10A]_[T11C]] | 37.5
UCUCUUCCACACUAUUAUAUCUCUU (ssRNA) [Id_ii_S1_P4E.4_K4.3_C4.2_[T-1C]_H4.3_A4.1_F4.1_T4.2_[G10T]_[T11A]] | > 2300
UCUCUUCAACACUAUUAAUUCUCUU (ssRNA) [Id_ii_S1_P4E.4_K4.3_C4.2_[T-1A]_H4.3_A4.1_F4.1_T4.2_[G10A]] | > 2300
UCUCUUUGUAAUUUAUCUCUU (ssRNA) [Ic_S1_P4E.1_K4.1_C4.1_H4.1_A4.1_[T5A]_[A6T]_F4.1_T4.1] | 3.77
UCUCUUGCUGUAUUAUUAUUUCUCUU (ssRNA) [Id_ii_S1_P5E.2_K5.1_C5.2_[C-2G]_[T-1C]_H5.1_A5.1_F5.1_T5.2_[A12T]] | 10.5
UCUCUUCUACACUAUUAUAUCUCUU (ssRNA) [Id_ii_S1_P4E.4_K4.3_C4.2_H4.3_A4.1_F4.1_T4.2_[G10T]_[T11A]] | 965
UCUCUUCAACACUAUUAUAUCUCUU (ssRNA) [Id_ii_S1_P4E.4_K4.3_C4.2_[T-1A]_H4.3_A4.1_F4.1_T4.2_[G10T]_[T11A]] | > 2300
UCUCUUUCUGUAUUAUUAAGUCUCUU (ssRNA) [Id_ii_S1_P5E.2_K5.1_C5.2_[C-2T]_[T-1C]_H5.1_A5.1_F5.1_T5.2_[T11A]_[A12G]] | 11.5
UCUCUUCCACACUAUUAGUUCUCUU (ssRNA) [Id_ii_S1_P4E.4_K4.3_C4.2_[T-1C]_H4.3_A4.1_F4.1_T4.2] | > 2300
UCUCUUUGUAUUAAUAUCUCUU (ssRNA) [Ia_S1_P5E.1_K5.1_C5.1_H5.1_A5.1_F5.1_[T8A]_T5.1] | 9.4
UCUCUUGUUGUAUUAUUAUUUCUCUU (ssRNA) [Id_ii_S1_P5E.2_K5.1_C5.2_[C-2G]_H5.1_A5.1_F5.1_T5.2_[A12T]] | 6.28

Binder | Kd [nM]
UCUCUUCGACACUAUUAACUCUCUU (ssRNA) [Id_ii_S1_P4E.4_K4.3_C4.2_[T-1G]_H4.3_A4.1_F4.1_T4.2_[G10A]_[T11C]] | > 2300
UCUCUUUGUGUAUUAUUAAUUCUCUU (ssRNA) [Id_ii_S1_P5E.2_K5.1_C5.2_[C-2T]_[T-1G]_H5.1_A5.1_F5.1_T5.2_[T11A]_[A12T]] | 4.68
UCUCUUUGUAACUUAUCUCUU (ssRNA) [Ib_S1_P4E.1_K4.1_C4.1_H4.1_A4.1_[T5A]_[A6C]_F4.1_T4.1] | 8.33
UCUCUUCUACACUAUUAUUUCUCUU (ssRNA) [Id_ii_S1_P4E.4_K4.3_C4.2_H4.3_A4.1_F4.1_T4.2_[G10T]] | > 2300
UCUCUUCCACACUAUUAAAUCUCUU (ssRNA) [Id_ii_S1_P4E.4_K4.3_C4.2_[T-1C]_H4.3_A4.1_F4.1_T4.2_[G10A]_[T11A]] | > 2300
UCUCUUCGACACUAUUACUUCUCUU (ssRNA) [Id_ii_S1_P4E.4_K4.3_C4.2_[T-1G]_H4.3_A4.1_F4.1_T4.2_[G10C]] | > 2300
UCUCUUAUACACUAUUAUUUCUCUU (ssRNA) [Id_ii_S1_P4E.4_K4.3_C4.2_[C-2A]_H4.3_A4.1_F4.1_T4.2_[G10T]] | 35.2
UCUCUUUCUGUAUUAUUAACUCUCUU (ssRNA) [Id_ii_S1_P5E.2_K5.1_C5.2_[C-2T]_[T-1C]_H5.1_A5.1_F5.1_T5.2_[T11A]_[A12C]] | 5.78
UCUCUUCCACACUAUUAACUCUCUU (ssRNA) [Id_ii_S1_P4E.4_K4.3_C4.2_[T-1C]_H4.3_A4.1_F4.1_T4.2_[G10A]_[T11C]] | > 2300
UCUCUUAUACACUAUUACAUCUCUU (ssRNA) [Id_ii_S1_P4E.4_K4.3_C4.2_[C-2A]_H4.3_A4.1_F4.1_T4.2_[G10C]_[T11A]] | 29.6
UCUCUUUGUACACUAUCUCUU (ssRNA) [Ib_S1_P4E.1_K4.1_C4.1_H4.1_A4.1_[T5C]_[T7C]_F4.1_T4.1] | 0.824
UCUCUUAAACACUAUUAAAUCUCUU (ssRNA) [Id_ii_S1_P4E.4_K4.3_C4.2_[C-2A]_[T-1A]_H4.3_A4.1_F4.1_T4.2_[G10A]_[T11A]] | > 2300
UCUCUUAUACACUAUUAAUUCUCUU (ssRNA) [Id_ii_S1_P4E.4_K4.3_C4.2_[C-2A]_H4.3_A4.1_F4.1_T4.2_[G10A]] | 35.2
UCUCUUCCACACUAUUACAUCUCUU (ssRNA) [Id_ii_S1_P4E.4_K4.3_C4.2_[T-1C]_H4.3_A4.1_F4.1_T4.2_[G10C]_[T11A]] | > 2300
UCUCUUAUACACUAUUACGUCUCUU (ssRNA) [Id_ii_S1_P4E.4_K4.3_C4.2_[C-2A]_H4.3_A4.1_F4.1_T4.2_[G10C]_[T11G]] | 32.1
UCUCUUCUACACUAUUAUCUCUCUU (ssRNA) [Id_ii_S1_P4E.4_K4.3_C4.2_H4.3_A4.1_F4.1_T4.2_[G10T]_[T11C]] | 1700
UCUCUUCCACACUAUUAGAUCUCUU (ssRNA) [Id_ii_S1_P4E.4_K4.3_C4.2_[T-1C]_H4.3_A4.1_F4.1_T4.2_[T11A]] | > 2300
UCUCUUAUACACUAUUACUUCUCUU (ssRNA) [Id_ii_S1_P4E.4_K4.3_C4.2_[C-2A]_H4.3_A4.1_F4.1_T4.2_[G10C]] | 31.1
UCUCUUGCUGUAUUAUUAUCUCUCUU (ssRNA) [Id_ii_S1_P5E.2_K5.1_C5.2_[C-2G]_[T-1C]_H5.1_A5.1_F5.1_T5.2_[A12C]] | 11.7
UCUCUUUGUGUAUUAUUAGUUCUCUU (ssRNA) [Id_ii_S1_P5E.2_K5.1_C5.2_[C-2T]_[T-1G]_H5.1_A5.1_F5.1_T5.2_[T11G]_[A12T]] | 2.43
